In patent US7098025B1, “Human peroxisome proliferator activated receptor gamma (pparγ) gene regulatory sequences and uses therefor” (Ligand Pharmaceuticals Incorporated, priority 1997, dated 2006):

Key:
hPPARγ3 promoter = experiment: pGL3γ3p800 luciferase reporter cotransfection in Hep G2 cells; format: cell-based, human; conditions: E-box mutated
Text: (§1) To assess whether ADD-1 regulates the expression of the hPPARγ3 mRNA, we cotransfected either an expression plasmid coding for ADD-1 together with the pGL3γ3p800 luciferase reporter vector. When Hep G2 cells were cotransfected with the ADD-1 expression vector, the luciferase activity was increased at least 4-fold relative to the basal activity of the hPPARγ3 promoter.
A 800 bp fragment of the PAC clone 8856 was isolated by PCR using the amplimers LF-60 (binding to the antisense strand in exon A2) and LF-68 (binding sense at position −800 of the PPARγ3 promoter). This PCR fragment was sequenced, inserted into the EcoRV site of pBluescript SK+ (Stratagene, La Jolla, USA), and after SpeI and KpnI restriction subcloned into pGL3 (Promega, Madison, USA), creating the reporter vector pGL3γ3p800.
(§2) Site-directed mutagenesis of the E-box in the PPARγ3 promoter was performed by splicing overlapping ends polymerase chain reaction (Ho, et al., Gene 77:51–59 (1989)), using the oligo pairs LF-106/LF-60 and LF-107/LF-68, to generate the plasmid pGL3γ3p800-E-boxmut. […]

human PPARγ1 promoter = experiment: pGL3γ1p3000 luciferase reporter cotransfection; format: cell-based; conditions: expression vector cotransfected
Text: as §1
To isolate the PPARγ1 promoter, an 8-kb EcoRI fragment, which hybridized with the oligonucleotide LF-2 (corresponding to the 5′-UTR of γ1), was cloned into pBluescript. […] To test for promoter activity, a SacI/XhoI digestion of this clone containing the 3-kb promoter was inserted in the same sites of pGL3, resulting in the final vector pGL3 γ1p3000. The pSG5-haPPARγ (39) and pMSV-C/EBPβ (10) expression vectors were described elsewhere. Transfections were carried out in 60-mm plates using standard calcium phosphate precipitation techniques (for 3T3-L1, CV-1, and COS cells) (22). Luciferase and […] assays were carried out exactly as described previously (22).
as §2

human PPARγ2 promoter = experiment: pGL3γ2p1000 luciferase reporter cotransfection; format: cell-based; conditions: expression vector cotransfected
Text: as §1
A 1-kb fragment of PAC clone 8856 was isolated by PCR using the oligonucleotides LF-35 (binding antisense in the PPARγ2 5′-UTR) and the oligonucleotide LF-58 (binding sense at position −1000 of the PPARγ2), was sequenced, and was inserted into EcoRV site of pBluescript (Stratagene, La Jolla, Calif.). After digestion of plasmid pBS γ2p1000 with SmaI and KpnI, the insert was cloned into the reporter vector pGL3 (Promega), creating the expression vector pGL3γ2p1000.
as §2

PPARγ mRNA [1] = experiment: RNase protection assay of endogenous PPARγ mRNA in electroporated Hep G2 cells; format: cell-based, human; conditions: Hep G2 cells electroporated with expression vector; 48 hr after transfection
Text: To investigate whether ADD-1/SREBP-1 expression was sufficient to regulate the expression of the endogeneous PPARγ3 mRNA, Hep G2 cells were electroporated with vectors expressing either SREBP-1a (Yokoyama et al., Cell 75:187–197 (1993)) or ADD-1 (Tontonoz et al., Mol. Cell. Biol. 13:4753–4759 (1993)). RNA was extracted 48 hr after transfection and analysed by RNase protection assay for the presence of PPARγ mRNA.
The absolute mRNA concentration of the differentially spliced PPARγ variants was measured by RNase protection assay exactly as described (Lemberger et al., J. Biol. Chem. 271:1764–1769 (1995)). The full lenght PPARγ2 coding region plus 33 bp of the 5′ UTR was amplified from human adipose tissue RNA by RT-PCR with the primer pair LF-3/LF-36 and was inserted in the inverted orientation (3′ to 5′ in front of the T7 promoter) into the EcoRI site of the expression vector pSG5 (Stratagene, La Jolla, Calif.). The resulting plasmid pSG5-hPPARγ2-inv was digested with EcoRV and religated, yielding the vector pSG5-hPPARγ2-RPA, which was used as a template for the synthesis of the anti-sense RNA probe, to measure the relative amounts of PPARγ2 relative to PPARγ1 and 3 mRNA. […]

PPARγ mRNA [2] = experiment: RNase protection assay of PPARγ mRNA in retrovirally infected 3T3-L1 cells; format: cell-based, mouse; conditions: 3T3-L1 preadipocytes and adipocytes; retroviral ectopic expression
Description: To study the effects of ADD-1 on PPARγ expression in more detail, either an empty retroviral vector pBabe or the same vector encoding for full length ADD-1 or the superactive ADD-1-403 form were introduced into 3T3-L1 cells via retroviral infection. […] Infected cells were then cultured to confluence and consecutively treated with differentiation medium. Total RNA was isolated at confluence (preadipocytes) and at day 6 after confluence (adipocytes) from the cells expressing either the empty pBabe vector or the same vector encoding for ADD-1 or ADD-1-403, a truncated form of ADD-1, equivalent to the proteolytically activated protein, which lacks the membrane anchoring domain. […] The effect of retroviral infection was more pronounced in 3T3-L1 adipocytes relative to preadipocytes.
Control cells received vehicle only.
The absolute mRNA concentration of the differentially spliced PPARγ variants was measured by RNase protection assay exactly as described (Lemberger et al., J. Biol. Chem. 271:1764–1769 (1995)). The full lenght PPARγ2 coding region plus 33 bp of the 5′ UTR was amplified from human adipose tissue RNA by RT-PCR with the primer pair LF-3/LF-36 and was inserted in the inverted orientation (3′ to 5′ in front of the T7 promoter) into the EcoRI site of the expression vector pSG5 (Stratagene, La Jolla, Calif.). […]

B1: ADD-1: basic helix-loop-helix leucine zipper transcription factor, expressed from a cotransfected, electroporated or retroviral vector (protein, UniProt P56720 1-1134, looked up)
Sterol regulatory …: MDELPFGEAALEQALAEVCEMDAALLTDIEDMLQLINNQDSDFPGLFDAPYAGGETGDTGPSSPGASSPESFSSPASLGSSLEAFLGGPKVTPAPLSPPPSAPTAVKMYPSVPPFSPGPGIKEEPVPLTILQPPAPQPSPGTLLPPSFPPPPVQLSPAPVLGYSSLPSGFSGTLPGNTQQTPSSLPLGSTPGISPTPLHTQVQSSAAQQPPPASAAPRMSTVASQIQQVPVVLQPHFIKADSLLLTAVKTDTGATMKTAGINTLAPGTAVQAGPLQTLVSGGTILATVPLVVDTDKLPIHRLAAGGKALGSAQSRGEKRTAHNAIEKRYRSSINDKIVELKDLVVGTEAKLNKSAVLRKAIDYIRFLQHSNQKLKQENLTLRSAHKSKSLKDLVSACGSGGGTDVSMEGMKPEVVETLTPPPSDAGSPSQSSPLSLGSRGSSSGGSDSEPDSPAFEDNQVKAQRLPSHSRGMLDRSRLALCVLVFLCLTCNPLASLFGWGILTPSDASGVHRSSGRSMLEAESRDGSNWTQWLLPPLVWLANGLLVLACLALLFVYGEPVTRPHSGPAVHFWRHRKQADLDLARGDFAQAAQQLWLALQALGRPLPTSNLDLACSLLWNLVRHLLQRLWVGRWLAGQAGGLQRDYRLRKDARASARDAAVVYHKLHQLHAMGKYTGGHLVASNLALSALNLAECAGDAISMATLAEIYVAAALRVKTSLPRALHFLTRFFLSSARQACLAQSGAVPLAMQWLCHPVGHRFFVDGDWAVHGAPQESLYSVAGNPVDPLAQVTRLFCEHLLERALNCIAQPSPGAADGDREFSDALGYLQLLNSCSDAVGAPACSFSVSSSMATTTGTDPVAKWWASLTAVVIHWLRRDEEAAERLYPLVEHIPQVLQETERPLPRAALYSFKAARALLDHRKVESSPASLAICEKASGYLRDSLASTSTASSIDKAMQLLLCDLLLVARTSLWRRQQSAASAQGAHGTSNGPQASALELRGFQHDLSSLRRLAQSFRPAMRRVFLHEATARLMAGASPARTHQLLDRSLRRRAGSSGKGGAAAELEPRPTWREHTEALLLASCYLPPAFLSAPGQRVSMLAEAARTVEKLGDHRLLLDCQQMLLRLGGGTTVTSS
stimulation of mutated pGL3γ3p800-E-boxmut reporter vector (hPPARγ3 promoter): unable to stimulate | activity of pGL3γ1p3000 reporter construct (human PPARγ1 promoter): unaffected | activity of pGL3γ2p1000 reporter construct (human PPARγ2 promoter): unaffected | PPARγ1 mRNA increase (PPARγ mRNA [1]): approximately 3 fold | expression of PPARγ mRNA (PPARγ mRNA [2]): induced
